{"source": "paper PMC4678028", "about": "“Oligomerization of Baculovirus LEF-11 Is Involved in Viral DNA Replication” (PLoS ONE, 2015)", "data": [{"biological_target": "T1, BmNPV late expression factor 11 (LEF-11), cMYC- or FLAG-tagged (Bombyx mori nucleopolyhedrovirus (BmNPV)), O92404", "T1 chain": "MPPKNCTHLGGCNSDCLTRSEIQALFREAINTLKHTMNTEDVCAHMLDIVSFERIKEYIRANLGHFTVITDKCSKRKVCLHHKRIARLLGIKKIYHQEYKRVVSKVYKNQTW", "test": "non-reducing SDS-PAGE with western blot; lysate of BmN-SWU1 cells transfected with pIZ-LEF11^cMYC, 72 h.p.t.; loading buffer without β-mercaptoethanol; 12% SDS-PAGE; anti-cMYC blot", "conditions": "remark: other sources report otherwise", "values": [{"binder": "BmNPV late expression factor 11 (LEF-11), cMYC- or FLAG-tagged, O92404 1-112 (natural protein) MPPKNCTHLGGCNSDCLTRSEIQALFREAINTLKHTMNTEDVCAHMLDIVSFERIKEYIRANLGHFTVITDKCSKRKVCLHHKRIARLLGIKKIYHQEYKRVVSKVYKNQTW", "stoichiometry N": 4}]}, {"biological_target": "the molecule itself", "test": "non-reducing SDS-PAGE with western blot; lysates of BmN-SWU1 cells transfected with pIZ-DsRed-LEF11 truncation or point mutant plasmids; loading buffer without β-mercaptoethanol; anti-DsRed blot", "conditions": "not given", "values": [{"binder": "pIZ-DsRed-LEF11-Y58E&I59E (natural protein, LEF-11 of BmNPV with Y58E and I59E; Probably the whole LEF-11 as in pIZ-DsRed-LEF11; also called YE58&I59E; source: BmN-SWU1 cells, transfected, in lysate; not shown: DsRed, N-terminal, kept) MPPKNCTHLGGCNSDCLTRSEIQALFREAINTLKHTMNTEDVCAHMLDIVSFERIKEEERANLGHFTVITDKCSKRKVCLHHKRIARLLGIKKIYHQEYKRVVSKVYKNQTW", "stoichiometry N": 2}, {"binder": "pIZ-DsRed-LEF11-L88E&L89E (natural protein, LEF-11 of BmNPV with L88E and L89E; Probably the whole LEF-11 as in pIZ-DsRed-LEF11; source: BmN-SWU1 cells, transfected, in lysate; not shown: DsRed, N-terminal, kept) MPPKNCTHLGGCNSDCLTRSEIQALFREAINTLKHTMNTEDVCAHMLDIVSFERIKEYIRANLGHFTVITDKCSKRKVCLHHKRIAREEGIKKIYHQEYKRVVSKVYKNQTW", "stoichiometry N": 2}, {"binder": "pIZ-DsRed-LEF11-I55E (natural protein, LEF-11 of BmNPV with I55E; Probably the whole LEF-11 as in pIZ-DsRed-LEF11; source: BmN-SWU1 cells, transfected, in lysate; not shown: DsRed, N-terminal, kept) MPPKNCTHLGGCNSDCLTRSEIQALFREAINTLKHTMNTEDVCAHMLDIVSFEREKEYIRANLGHFTVITDKCSKRKVCLHHKRIARLLGIKKIYHQEYKRVVSKVYKNQTW", "stoichiometry N": 2}, {"binder": "pIZ-DsRed-LEF11-I85E (natural protein, LEF-11 of BmNPV with I85E; Probably the whole LEF-11 as in pIZ-DsRed-LEF11; source: BmN-SWU1 cells, transfected, in lysate; not shown: DsRed, N-terminal, kept) MPPKNCTHLGGCNSDCLTRSEIQALFREAINTLKHTMNTEDVCAHMLDIVSFERIKEYIRANLGHFTVITDKCSKRKVCLHHKREARLLGIKKIYHQEYKRVVSKVYKNQTW", "stoichiometry N": 2}, {"binder": "PPKNCTHLGGCNSDCLTRSEIQALFREAINTLKHTMNTEDVCAHMLDIVS (domain or fragment, LEF-11 of BmNPV, residues 2-51; source: BmN-SWU1 cells, transfected, in lysate; not shown: DsRed, N-terminal, kept)", "note": "[DsRed-LEF11 (2–51)]", "stoichiometry N": 2}, {"binder": "FERIKEYIRA (domain or fragment, LEF-11 of BmNPV, residues 52-61; source: BmN-SWU1 cells, transfected, in lysate; not shown: DsRed, N-terminal, kept)", "note": "[DsRed-LEF11 (52–61)]", "stoichiometry N": 2}, {"binder": "KCSKRKVCLHHKRIARLLGIKKIYHQEYKRVVSKVYKNQTW (domain or fragment, LEF-11 of BmNPV, residues 72-112; source: BmN-SWU1 cells, transfected, in lysate; not shown: DsRed, N-terminal, kept)", "note": "[DsRed-LEF11 (72–112)]", "stoichiometry N": 2}, {"binder": "IQALFREAINTLKHTMNTEDVCAHMLDIVSFERIKEYIRA (domain or fragment, LEF-11 of BmNPV, residues 22-61; source: BmN-SWU1 cells, transfected, in lysate; not shown: DsRed, N-terminal, kept)", "note": "[DsRed-LEF11 (22–61)]", "stoichiometry N": 2}, {"binder": "DsRed-LEF11 (2–61) (domain or fragment, LEF-11 of BmNPV, residues 2-61; source: BmN-SWU1 cells, transfected, in lysate; not shown: DsRed, N-terminal, kept) PPKNCTHLGGCNSDCLTRSEIQALFREAINTLKHTMNTEDVCAHMLDIVSFERIKEYIRA", "stoichiometry N": 2}, {"binder": "VCAHMLDIVSFERIKEYIRA (domain or fragment, LEF-11 of BmNPV, residues 42-61; source: BmN-SWU1 cells, transfected, in lysate; not shown: DsRed, N-terminal, kept)", "note": "[DsRed-LEF11 (42–61)]", "stoichiometry N": 2}, {"binder": "TLKHTMNTEDVCAHMLDIVSFERIKEYIRA (domain or fragment, LEF-11 of BmNPV, residues 32-61; source: BmN-SWU1 cells, transfected, in lysate; not shown: DsRed, N-terminal, kept)", "note": "[DsRed-LEF11 (32–61)]", "stoichiometry N": 2}, {"binder": "CNSDCLTRSEIQALFREAINTLKHTMNTEDVCAHMLDIVSFERIKEYIRA (domain or fragment, LEF-11 of BmNPV, residues 12-61; source: BmN-SWU1 cells, transfected, in lysate; not shown: DsRed, N-terminal, kept)", "note": "[DsRed-LEF11 (12–61)]", "stoichiometry N": 2}, {"binder": "DsRed-LEF11 (62–112) (domain or fragment, LEF-11 of BmNPV, residues 62-112; source: BmN-SWU1 cells, transfected, in lysate; not shown: DsRed, N-terminal, kept) NLGHFTVITDKCSKRKVCLHHKRIARLLGIKKIYHQEYKRVVSKVYKNQTW", "stoichiometry N": 2}, {"binder": "KCSKRKVCLHHKRIARLLGIKKIYHQEYKR (domain or fragment, source: BmN-SWU1 cells, transfected, in lysate; not shown: DsRed, N-terminal, kept)", "note": "[DsRed-LEF11 (72–101)]", "stoichiometry N": 2}]}]}
